The results in this text go back to patent US20200231671A1 (E R SQUIBB AND SONS L L C, published 2020).

The target in assay [1] is T1, LAG-3 fusion protein comprising human LAG-3 extracellular domain fused to mouse Fc (human, UniProt P18627 23-450).
T1 construct: extracellular domain; also called hLAG-3-mIg; LAG-3-mIg; not shown: mouse Fc
T1 sequence (looked up): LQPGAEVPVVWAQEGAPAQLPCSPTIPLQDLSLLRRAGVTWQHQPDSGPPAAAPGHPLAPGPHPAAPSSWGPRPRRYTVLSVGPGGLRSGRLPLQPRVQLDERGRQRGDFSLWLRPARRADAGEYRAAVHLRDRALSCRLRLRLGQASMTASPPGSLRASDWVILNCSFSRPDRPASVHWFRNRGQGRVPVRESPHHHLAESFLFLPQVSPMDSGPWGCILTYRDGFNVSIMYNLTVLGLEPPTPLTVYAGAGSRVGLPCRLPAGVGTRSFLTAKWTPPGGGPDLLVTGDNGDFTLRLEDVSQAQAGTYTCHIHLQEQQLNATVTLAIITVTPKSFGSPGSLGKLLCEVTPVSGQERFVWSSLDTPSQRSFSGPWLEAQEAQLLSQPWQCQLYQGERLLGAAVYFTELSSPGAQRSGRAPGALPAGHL
The assay is described as follows: flow cytometry, inhibition of hLAG-3-mIg binding to MHC Class II on Daudi cells. How it is done: To test the ability of the anti-LAG-3 antibodies to inhibit binding of LAG-3 to MHC Class II molecules, an in vitro binding assay was performed in which a LAG-3 fusion protein, comprising human LAG-3 extracellar domain fused to mouse Fc (hLAG-3-mIg), was reacted with Daudi cells, which express human MHC Class II molecules.
This mixture was incubated for 20 minutes at room temperature prior to adding to 2×10^{5 1}×PFAE-washed Daudi cells. The mixture was applied to Daudi cells and incubated at 4° C. for 30 minutes. The cells were pelleted (three minutes, 400×g), washed once with 1×PFAE buffer and re-pelleted, and binding of hLAG-3-mIg to the Daudi cells was detected using a recombinant PE-labeled anti-mIgG Fcγ secondary reagent. Analysis of LAG-3-mIg binding was carried out with the FACScalibur flow cytometer (BD Bioscience).

The target of assay [2] is T2, human LAG-3 (cell surface) (human, UniProt P18627 23-525).
T2 construct: whole, on cells; also called CHO-human LAG-3
T2 sequence (looked up): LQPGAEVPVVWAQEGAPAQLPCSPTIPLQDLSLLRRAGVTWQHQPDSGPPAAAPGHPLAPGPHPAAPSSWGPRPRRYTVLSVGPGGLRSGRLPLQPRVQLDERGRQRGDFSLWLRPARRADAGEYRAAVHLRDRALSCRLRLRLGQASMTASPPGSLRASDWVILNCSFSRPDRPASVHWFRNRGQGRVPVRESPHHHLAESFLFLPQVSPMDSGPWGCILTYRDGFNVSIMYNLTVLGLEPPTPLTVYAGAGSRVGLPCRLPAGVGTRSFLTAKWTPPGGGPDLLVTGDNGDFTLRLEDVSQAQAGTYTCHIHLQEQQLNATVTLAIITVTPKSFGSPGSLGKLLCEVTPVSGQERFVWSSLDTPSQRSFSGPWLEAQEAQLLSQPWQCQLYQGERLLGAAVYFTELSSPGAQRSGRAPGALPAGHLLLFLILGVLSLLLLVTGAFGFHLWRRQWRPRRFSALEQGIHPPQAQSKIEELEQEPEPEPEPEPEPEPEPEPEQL
Kind of assay: flow cytometry, activated human CD4+ T cells. How it is done:
To test the ability of the antibodies to bind to cell surface LAG-3 protein, the antibodies were incubated with a CHO cell line that had been transfected to express human LAG-3 on the cell surface. The 25F7, 26H10, 25E3, 8B7, 11F2 and 17E5 monoclonal antibodies were serially diluted with cold lx PFAE buffer (1×PBS+2% FBS, 0.02% sodium azide, 2 mM Na EDTA). For the binding reaction, 50 μl of diluted antibody solution was added to a 50 μl cell suspension containing 2×10⁵ cells and the mixture was incubated on ice for 30 minutes. The cells were then washed two times with 1×PFAE buffer. A 1:100 dilution of FITC-labeled goat anti-human kappa light chain antibody (Bethyl Laboratories, Inc., Cat. # A80-115F) was added and the mixture was incubated for 30 minutes at 4° C., followed by washing twice with cold 1×PFAE buffer. After the final wash, 150 μl of cold 1×PFAE containing 10 μg/mL propidium iodide (Roche Applied Science, Cat #1 348 639) was added to each solution and analysis of antibody binding was carried out by flow cytometry using a FACScalibur flow cytometer (BD Bioscience).
To test the ability of the antibodies to bind to native human LAG-3 on the surface of activated human T cells, resting CD4⁺ T cells were isolated from purified peripheral blood mononuclear cells and subjected to three days of stimulation with a combination of anti-CD3 and anti-CD28 antibodies affixed to polystyrene beads. The 25F7, 8B7 and 26H10 monoclonal antibodies were serially diluted with cold 1×PFAE buffer (1×PBS+2% FBS, 0.02% sodium azide, 2 mM Na EDTA). For the binding reaction, 50 μl of diluted antibody solution was mixed with 50 μl of PE-labeled anti-human CD4 (BD Bioscience, Cat # 555347). Activated T cells were processed by the same protocol described above. The analysis of antibody binding was conducted as described above.
(In general: A flow cytometer gives signals particle by particle.)

Assay [3] addresses T3, LAG-3 extra loop scan peptide AAPGHPLAPGPH (human, also: conjugated to biotin, site not given here).
T3 construct: 12-mer overlapping scan peptide of the extra loop
T3 peptide: AAPGHPLAPGPH
The assay is described as follows: peptide scan ELISA. How it is done: (§1) In the LAG-3 protein, the immunoglobulin-like first domain of the extracellular region contains an exposed “extra loop” having the amino acid sequence: […] (SEQ ID NO: 79). To examine the binding of 25E3, 25F7, 8B7 and 26H10 to this region of LAG-3, and map the epitope bound by each antibody, a peptide scan experiment was performed across this region. A series of 10 overlapping peptides that scanned across the full length of the extra loop sequence were prepared and conjugated to biotin. For ELISA analysis, microtiter plates pre-coated with streptavidin (Sigma-Aldrich, Cat # M5432) were used to capture the biotinylated loop peptide-conjugates applied in a 100 μl volume at a concentration of 2 μg/mL and incubated 18 hours at 4° C., after which the plates were washed 3 times and blocked at room temperature for 1 hour with blocking buffer (1×PBS+10% FBS). Next, human anti-LAG-3 antibodies serially diluted 3-fold in blocking buffer from 10 μg/mL were applied and the plates were incubated at room temperature for 2 hours and then washed three times. To detect bound human antibody a HRP-conjugated goat anti-human kappa light chain antibody (Bethyl Laboratories, Cat # A80-115P) was diluted to 1 μg/mL in blocking buffer and applied to assay wells for 1 hour followed by three washes and application of TMB substrate (eBioscience, Cat #00-4201-56). Optical density readings at 650 nm wavelength were made on a Spectramax 340PC spectrophotometer ([…].).
(An ELISA detects its analyte on a solid surface through an enzyme-linked reagent.)

In assay [4] the target is T4, LAG-3 extra loop scan peptide PGHPLAPGPHPA (human, also: conjugated to biotin).
T4 construct: 12-mer overlapping scan peptide of the extra loop
T4 peptide: PGHPLAPGPHPA
The assay is described as follows: peptide scan ELISA. How it is done: as §1

Numbering of substitutions follows the chain as printed. Where no end group is shown, it is not given here.

B1: 26H10 human monoclonal antibody (antibody, IgG1, V domains shown)
VH: QVQLVESGGGVVQPGRSLRLSCAASGFTFSSYGMHWVRQAPGKGLEWVAVIWYDGSNKYYADSVKGRFTISRDNSKNTLYLQMNSLRAEDTAVYYCAREWAVASWDYGMDVWGQGTTVTVSS
VL: not shown
notes: also called 26H10-FITC
In assay [1], B1 registered an IC50 of 0.1 nM. Further, the EC50 in assay [2] is 0.41 to 0.84 nM. Besides, the binding result in assay [3] and in assay [4] was “no binding (tested: 10 µg/mL)” each time.

B2: 25F7 human monoclonal antibody (antibody, IgG1, V domains shown)
VH: QVQLQQWGAGLLKPSETLSLTCAVYGGSFSDYYWNWIRQPPGKGLEWIGEINHNGNTNSNPSLKSRVTLSLDTSKNQFSLKLRSVTAADTAVYYCAFGYSDYEYNWFDPWGQGTLVTVSS
VL: EIVLTQSPATLSLSPGERATLSCRASQSISSYLAWYQQKPGQAPRLLIYDASNRATGIPARFSGSGSGTDFTLTISSLEPEDFAVYYCQQRSNWPLTFGQGTNLEIK
notes: also called 25F7-FITC (IgG1 version)
Take B2: the half-inhibitory concentration (IC50) in assay [1] lay in the range of 0.12 to 0.92 nM. The EC50 in assay [2] was in the range of 0.27 to 0.45 nM.

B3: 8B7 human monoclonal antibody (antibody, IgG4, V domains shown)
VH: QVQLQQWGAGLLKPSETLSLTCAVYGGSFSGYYWSWIRQPPGKGLEWIGEINHRGNTNCNPSLKSRVTISGDTSKKQFALKLNSVTAADTAVYYCARGYDILTGYYEDSWGPGTLVTVSS
VL: B2 VL with I29V, D50N, Q100G, N103K, L104V
notes: also called 8B7-FITC
For the molecule B3, the IC50 in assay [1] was 0.19 to 0.95 nM. The EC50 in assay [2] lay in the range of 0.69 to 1.8 nM.

B4: 25E3 human monoclonal antibody (antibody, IgG1, V domains shown)
VH: EVQLVESGGGVVRPGGSLRLSCAASGFTFDDYGMSWVRQAPGKGLEWVSGINWNGGSTYYADSVKGRFTISGDNAKNSLYLQMNSLRAEDTALYYCTTGGYWGQGTLVTVSS
VL: AIQLTQSPSSLSASVGDRVTITCRASQGIRSALAWYQQKPGKAPKLLIYDASSLESGVPSRFSGSGSGTDFTLTISSLQPEDFATYYCQQFNSYPYTFGQGTKLEIK
Take B4: the IC50 in assay [1] lay in the range of 0.8 to 6.78 nM. Besides, the binding result in assay [3] and in assay [4] was “binds” each time.

The term IC50 denotes the midpoint of a concentration-inhibition curve. High values mean lower potency, low ones higher potency. The EC50 is the concentration needed to bring the measured effect to its halfway point.
